Earlier results, collected in publication PMC10532153, “Interactions of the N- and C-Terminal SH3 Domains of Drosophila Drk with the Proline-Rich Peptides from Sos and Dos” (International Journal of Molecular Sciences, 2023).

Molecular target: T1, Drk-CSH3 (Drosophila melanogaster, UniProt Q08012)
T1 construct: its N- and C-terminal SH3 domains (Drk-NSH3 and Drk-CSH3, respectively); made in house
Settings: previous paper on Drk-CSH3; read-out: Kd for Drk-CSH3, nine-residue (“shorter”) Dos peptides
From the text: Table 1 The calculated dissociation constants (Kds) for Sos- and Dos-derived peptides.

T1 sequence (Q08012 152-211 limits assumed): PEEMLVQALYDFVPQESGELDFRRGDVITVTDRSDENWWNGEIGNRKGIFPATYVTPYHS

| Sequence | Kd |
| --- | --- |
| PSVDRKCKP [shorter Dos-S2] | ~4.8 mM |
| PPVNRKLKP [shorter Dos-S1] | ~1.4 mM |
